The target of this data set is ubiquitin-D77.

B1: YUH1 (protein)
chain: MSGENRAVVPIESNPEVFTNFAHKLGLKNEWAYFDIYSLTEPELLAFLPRPVKAIVLLFPINEDRKSSTSQQITSSYDVIWFKQSVKNACGLYAILHSLSNNQSLLEPGSDLDNFLKSQSDTSSSKNRFDDVTTDQFVLNVIKENVQTFSTGQSEAPEATADTNLHYITYVEENGGIFELDGRNLSGPLYLGKSDPTATDLIEQELVRVRVASYMENANEEDVLNFAMLGLGPNWE
B1: the “fluorescence intensity over time (real-time deubiquitinase assay with 500 nM ubiquitin-D77, 10 nM fluorescein-tagged ubiquitin, 10 nM tIVR)” value was “Activity of YUH1 released ubiquitin proteins from conjugation to aspartic acid (i.e., the D77 residue), and thus increased the concentration of free ubiquitin protein”.
